For one assay, the target named is T1, F93A mutant GSK-3β (Homo sapiens, UniProt P49841, F93A).
T1 construct: made in house; host or cells: HEK-293 (transient transfection, pCMV4 vector; DE-52 partial purification)
The experiment in a line: In vitro kinase assay with F93A mutant in presence or absence of inhibitor. The format is biochemical. To be noted: FIGS. 2B, 2C. From the text:
(§1) GSK-3β in the pCMV4 vector was used as the template for mutagenesis. Mutations were generated using QuickChange Site Directed Mutagenesis Kit (Stratagene, La Jolla, Calif., USA) according the manufacturer's protocols. Mutations included replacement of D90, K91, R92, F93, K94, V214 to alanine, F93 to tyrosine, and a triple mutation at residues 91-93. All constructs were sequenced to confirm the presence of desired mutations. The sequences of mutagenic oligonucleotides are available from the inventors upon request.
(§2) HEK-293 cells were grown in Dulbecco's Modified Eagle's Medium (DMEM), supplemented with 10% fetal calf serum (FCS), 2 mM glutamine, 100 units/ml penicillin, and 100 μg/ml streptomycin. HEK-293 cells were transiently transfected with indicated constructs, using calcium phosphate method as described [Ilouz et al. (2006) supra]. Cells were lysed in ice-cold buffer G (20 mM Tris-HCl, pH 7.5, 10 mM β-glycerophosphate, 10% glycerol, 1 mM EGTA, 1 mM EDTA, 50 mM NaF, 5 mM sodium pyrophosphate, 0.5 mM orthovanadate, 1 mM benzamidine, 10 μg/ml leupeptin, 5 μg/ml aprotinin, 1 μg/ml pepstatin, and 0.5% Triton X100). Cell extracts were centrifuged for 30 minutes at 15,000×g. […] In all experiments, GSK-3 mutants were expressed at levels at least 5-fold higher than levels of the endogenous GSK-3β as determined by western blot analysis. […]

Assay [1] concerns GSK-3β mutants Q89A, N95A, R92A, K94A and F93Y. The experiment in a line: In vitro kinase assay with other GSK-3β mutants in presence or absence of inhibitor. The format is biochemical, human. To be noted: data not shown.
Description: as §1, §2

The target in the next assay is T2, GSK-3β (Homo sapiens, UniProt P49841).
T2 construct: made in house; host or cells: HEK-293 (transient transfection, pCMV4 vector; DE-52 partial purification)
T2 sequence (P49841 1-433 isoform P49841-2): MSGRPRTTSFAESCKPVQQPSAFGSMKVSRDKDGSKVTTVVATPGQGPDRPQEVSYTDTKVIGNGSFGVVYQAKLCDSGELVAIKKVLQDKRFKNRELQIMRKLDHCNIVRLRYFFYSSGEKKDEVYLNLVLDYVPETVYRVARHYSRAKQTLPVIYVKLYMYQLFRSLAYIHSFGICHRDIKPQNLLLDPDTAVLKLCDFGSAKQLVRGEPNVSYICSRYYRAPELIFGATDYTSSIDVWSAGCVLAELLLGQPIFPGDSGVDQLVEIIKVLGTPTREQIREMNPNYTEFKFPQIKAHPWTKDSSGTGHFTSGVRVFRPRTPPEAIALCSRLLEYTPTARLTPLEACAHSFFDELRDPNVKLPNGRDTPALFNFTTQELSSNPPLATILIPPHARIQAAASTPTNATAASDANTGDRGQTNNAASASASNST
The experiment in a line: In vitro kinase assay with GSK-3β in the presence of peptide inhibitor. The format is biochemical. To be noted: for Inhibition of WT-GSK-3β compared with L803: 250 μM each, FIGS. 3B, 3C. Here is the method: (§3) (0.5 μCi/assay) for 15 minutes.
The ability of each peptide to inhibit GSK-3β was then determined by in vitro kinase assays as described hereinabove.

A further assay relates to pIRS-1. Briefly: In vitro kinase assay of GSK-3β mutants, substrate pIRS-1. The format is biochemical. To be noted: WT set to 100%; mean of 2-3 experiments ± SEM. The procedure:
(§4) HEK-293 cells were grown in Dulbecco's Modified Eagle's Medium (DMEM), supplemented with 10% fetal calf serum (FCS), 2 mM glutamine, 100 units/ml penicillin, and 100 μg/ml streptomycin. HEK-293 cells were transiently transfected with indicated constructs, using calcium phosphate method as described [Ilouz et al. (2006) supra]. Cells were lysed in ice-cold buffer G (20 mM Tris-HCl, pH 7.5, 10 mM β-glycerophosphate, 10% glycerol, 1 mM EGTA, 1 mM EDTA, 50 mM NaF, 5 mM sodium pyrophosphate, 0.5 mM orthovanadate, 1 mM benzamidine, 10 μg/ml leupeptin, 5 μg/ml aprotinin, 1 μg/ml pepstatin, and 0.5% Triton X100). Cell extracts were centrifuged for 30 minutes at 15,000×g. Supernatants were collected, and equal amounts of proteins were boiled with SDS sample buffer and subjected to gel electrophoresis (7.5-12% polyacrylamide gel), transferred to nitrocellulose membranes, and immunoblotted with indicated antibodies. For partial purification, cells were lysed in buffer H (20 mM Tris, pH 7.3, 1 mM EGTA, 1 mM EDTA, 1 mM orthovanadate, 25 μg/ml leupeptin, 25 μg/ml aprotinin, and 25 μg/ml pepstatin A, 500 nM microcystine LR, and 0.25% Triton X100). The lysates were centrifuged at 15,000×g. The resulting supernatants were passed through DE-52 (Whatman, Maidstone, England) mini-columns that were equilibrated with buffer H. GSK-3β proteins were eluted with the same buffer containing 0.02 M NaCl. Equal amounts of proteins were used for in vitro kinase assays. In all experiments, GSK-3 mutants were expressed at levels at least 5-fold higher than levels of the endogenous GSK-3β as determined by western blot analysis.
as §3
(§5) The GSK-3β mutants were partially purified by ion exchange chromatography, and their abilities to phosphorylate peptide substrates were tested in in vitro kinase assays. The substrates were: pIRS-1, p9CREB, and pGS-1, phosphorylated peptides derived from the insulin receptor substrate-1 (IRS-1), cAMP responsive element binding protein (CREB), and glycogen synthase, respectively.
(§6) The results are presented in Table 1, as the percentage of substrate phosphorylation (indicated peptides, pIRS-1, p9CREB and pGS-1) obtained with WTGSK-3β which was set to 100%, and are mean of 2-3 independent experiments each performed in duplicates±SEM.

The subject of the next assay is p9CREB. Briefly: In vitro kinase assay of GSK-3β mutants, substrate p9CREB. The format is biochemical. To be noted: WT set to 100%; mean of 2-3 experiments ± SEM. Here is the method:
as §4, §3, §5, §6

In a further assay the test system is pGS-1. Briefly: In vitro kinase assay of GSK-3β mutants, substrate pGS-1. The format is biochemical. To be noted: WT set to 100%; mean of 2-3 experiments ± SEM. The procedure:
as §4, §3, §5, §6

Assay [2] has as its system CREB (Ser 129) and N′IRS-1 (Ser 332). The experiment in a line: Phosphorylation of CREB and N'IRS-1 in HEK-293 cells expressing GSK-3β proteins. To be noted: forskolin or PMA treated, compared with WT-GSK-3β. The format is cell-based. Here is the method:
The role of Phe 93 in substrate binding by employing a cellular system and protein substrates (i.e., not peptides) was further explored. To this end, the WT-GSK-3β and F93A mutant were expressed in HEK-293 cells together with GSK-3 substrates CREB or N′IRS-1 (the N-terminal region of IRS-1). Because GSK-3 requires pre-phosphorylation of its substrates, the cells were treated with forskolin to enhance CREB phosphorylation via activation of cAMP dependent kinase (PKA), or with phorbol ester (PMA) to enhance N′IRS-1 phosphorylation via activation of protein kinase C (PKC). The phosphorylation of CREB at serine 129, and N′IRS-1 at serine 332 (both GSK-3 phosphorylation sites) was then examined.
Thus, HEK293 cells were co-transfected with WT-GSK-3β or F93A plasmids together with construct coding for CREB. Cells were treated with forskolin (10 μM, 1 hour), and cell extracts were subjected to western blot analysis using anti-phospho CREB (Ser 129/133) antibody, as presented in FIG. 1D. Expression levels of CREB and GSK-3 proteins are indicated.
Similar assay was conducted using N′IRS-1 cDNA construct instead of CREB, and cells were treated with PMA (100 nM, 30 minutes). Expression levels of N′IRS-1 and GSK-3β are indicated. Results are means of three independent experiments±SEM.

Changes are numbered by the printed parent chain. Numbers in names are those of the source. Where no end group is shown, it is not given here. [ ]: non-standard residue; d: D form. The star is where a group is joined. Myristoyl = CCCCCCCCCCCCCC(=O)*; pS = N[C@@H](COP(=O)(O)O)C(=O)O

On to KEAPPAPPQS(p)P (KEAPPAPPQ[pS]P) [L803], for which, in the assay with F93A mutant GSK-3β, the “Inhibition of F93A mutated enzyme” value was “did not inhibit”. For the same molecule, in assay [1], the “Inhibition of other GSK-3β mutants” value is listed as “inhibited all other mutants”.

“Lys-Glu-Ala-Pro-Pro-Ala-Pro-Pro-Pro-phosphorylated Ser-Pro [PQ9P]”: the “Inhibition activity, dose-response comparative plots” value at GSK-3β (L803, PQ9A and PQ9P compared, FIG. 5) is “enhanced inhibition activity”.

In the case of “PQ9Y: L803 variant, Gln 9 replaced with tyrosine, SEQ ID NO:15 (KEAPPAPPYSP; PQ9Y synthetic peptide)”, the “Inhibition of WT-GSK-3β compared with L803” value in the assay with GSK-3β is listed as “non-inhibitory”.

“Lys-Ala-Ala-Pro-Pro-Ala-Pro-Pro-Gln-phosphorylated Ser-Pro [PE2A]”: on GSK-3β, the “Inhibition of WT-GSK-3β compared with L803” value is on record as “slightly impaired”.

As for “PQ9R: L803 variant, Gln 9 replaced with arginine, SEQ ID NO:14 (KEAPPAPPRSP; PQ9R synthetic peptide)”, in the assay with GSK-3β, the “Inhibition of WT-GSK-3β compared with L803” value is “non-inhibitory”.

Take “Lys-Glu-Ala-Pro-Pro-Ala-Pro-Pro-Ala-phosphorylated Ser-Pro [PQ9A]”: the “Increase of inhibition relative to L803” value at GSK-3β (250 μM, FIG. 3B) is “about two-fold”.

Turning to “L803-mts: L803 in which myristic acid was attached to its N-terminal, cell permeable, SEQ ID NO:5 (Myristoyl-GKEAPPAPPQSP; not fully specified (residue 11))”, in the assay with GSK-3β (purified GSK-3β, 100 μM, FIG. 2A), the “Competition with substrates pIRS-1, p9CREB, pGS-1” value is reported as “competes with various substrates”. Further, the “Inhibition of F93A mutated enzyme” value in the assay with F93A mutant GSK-3β is recorded as “did not inhibit”. Also, the “Inhibition of other GSK-3β mutants” value in assay [1] is “able to inhibit all other mutants”.

B1: F93A: GSK-3β mutant, F93 replaced by alanine, SEQ ID NO:9 (protein)
chain: MSGRPRTTSFAESCKPVQQPSAFGSMKVSRDKDGSKVTTVVATPGQGPDRPQEVSYTDTKVIGNGSFGVVYQAKLCDSGELVAIKKVLQDKRAKNRELQIMRKLDHCNIVRLRYFFYSSGEKKDEVYLNLVLDYVPETVYRVARHYSRAKQTLPVIYVKLYMYQLFRSLAYIHSFGICHRDIKPQNLLLDPDTAVLKLCDFGSAKQLVRGEPNVSYICSRYYRAPELIFGATDYTSSIDVWSAGCVLAELLLGQPIFPGDSGVDQLVEIIKVLGTPTREQIREMNPNYTEFKFPQIKAHPWTKDSSGTGHFTSGVRVFRPRTPPEAIALCSRLLEYTPTARLTPLEACAHSFFDELRDPNVKLPNGRDTPALFNFTTQELSSNPPLATILIPPHARIQAAASTPTNATAASDANTGDRGQTNNAASASASNST
modifications: GSK-3 beta, F93A mutant
B1: in the assay with pIRS-1, the “Substrate phosphorylation (% of WTGSK-3β), pIRS-1” value is 42 ± 13 % of WTGSK-3β. Besides, the “Substrate phosphorylation (% of WTGSK-3β), p9CREB” value with p9CREB is reported as 46 ± 2 % of WTGSK-3β. Also, in the assay on pGS-1, the “Substrate phosphorylation (% of WTGSK-3β), pGS-1” value is listed as 13 ± 7 % of WTGSK-3β. Further, the “Phosphorylation of CREB and N′IRS-1 in cells” value in assay [2] was “did not enhance the phosphorylation”.

B2: K91A: GSK-3β mutant, K91 replaced by alanine, SEQ ID NO:7 (protein)
chain: B1 chain with K91A, A93F
modifications: GSK-3 beta, K91A mutant
B2: the “Substrate phosphorylation (% of WTGSK-3β), pIRS-1” value with pIRS-1 is listed as 140 ± 18 % of WTGSK-3β. Further, the “Substrate phosphorylation (% of WTGSK-3β), p9CREB” value in the assay with p9CREB is listed as 161 ± 5 % of WTGSK-3β. In the assay on pGS-1, the “Substrate phosphorylation (% of WTGSK-3β), pGS-1” value is 119 ± 5 % of WTGSK-3β.

B3: R92A: GSK-3β mutant, R92 replaced by alanine, SEQ ID NO:8 (protein)
chain: B1 chain with R92A, A93F
modifications: GSK-3 beta, R92A mutant
As to B3, in the assay on pIRS-1, the “Substrate phosphorylation (% of WTGSK-3β), pIRS-1” value is reported as 60 ± 3 % of WTGSK-3β. Moreover, in the assay on p9CREB, the “Substrate phosphorylation (% of WTGSK-3β), p9CREB” value was 49 ± 19 % of WTGSK-3β. The “Substrate phosphorylation (% of WTGSK-3β), pGS-1” value in the assay with pGS-1 is recorded as 41 ± 14 % of WTGSK-3β.

B4: D90A: GSK-3β mutant, D90 replaced by alanine, SEQ ID NO:6 (protein)
chain: B1 chain with D90A, A93F
modifications: GSK-3 beta, D90A mutant
As for B4, the “Substrate phosphorylation (% of WTGSK-3β), pIRS-1” value in the assay on pIRS-1 is on record as 88 ± 15 % of WTGSK-3β. In addition, the “Substrate phosphorylation (% of WTGSK-3β), p9CREB” value with p9CREB is reported as 92 ± 21 % of WTGSK-3β. Besides, the “Substrate phosphorylation (% of WTGSK-3β), pGS-1” value with pGS-1 is recorded as 83 ± 2 % of WTGSK-3β.

B5: K94A: GSK-3β mutant, K94 replaced by alanine, SEQ ID NO:10 (protein)
chain: B1 chain with A93F, K94A
modifications: GSK-3 beta, K94A mutant
Regarding B5, the “Substrate phosphorylation (% of WTGSK-3β), pIRS-1” value in the assay with pIRS-1 is given as 52 ± 19 % of WTGSK-3β. In addition, in the assay on p9CREB, the “Substrate phosphorylation (% of WTGSK-3β), p9CREB” value was 71 ± 4 % of WTGSK-3β. The “Substrate phosphorylation (% of WTGSK-3β), pGS-1” value in the assay on pGS-1 was 19 ± 14 % of WTGSK-3β.

The record behind these values is US9243034B2, “Glycogen synthase kinase-3 inhibitors” (Ramot at Tel-Aviv University Ltd., priority 2011, dated 2016).
